Changes are numbered by the printed parent chain. Where two headings read alike, the source gives them in different places.
Legend:
human IL-17A [1] = molecular target: T1, human IL-17A (human, UniProt Q16552 24-155); test: cell-based or functional assay
T1 sequence (Q16552 24-155 limits assumed): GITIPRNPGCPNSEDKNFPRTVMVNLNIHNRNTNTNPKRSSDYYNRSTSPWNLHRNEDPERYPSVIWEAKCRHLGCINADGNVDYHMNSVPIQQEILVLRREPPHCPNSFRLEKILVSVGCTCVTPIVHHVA

human IL-17A/F [2] = molecular target: T2, human IL-17A/F (human, UniProt Q16552 24-155; Q96PD4 31-163); test: cell-based or functional assay
T2 sequence (Q16552 24-155 limits assumed, chain 1 of 2): as the sequence (Q16552 24-155 limits assumed) above
T2 sequence (Q96PD4 31-163 limits assumed, chain 2 of 2): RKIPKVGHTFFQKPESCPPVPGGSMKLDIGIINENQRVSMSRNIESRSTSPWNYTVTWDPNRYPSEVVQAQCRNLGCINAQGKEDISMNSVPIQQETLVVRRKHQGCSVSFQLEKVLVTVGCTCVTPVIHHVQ

[3] = molecular target: T3, cynomolgous monkey (cyno) IL-17A (cynomolgus monkey, UniProt A0A2K5TTB0 24-155); test: cell-based or functional assay
T3 sequence (A0A2K5TTB0 entry or part of it): as the sequence (Q16552 24-155 limits assumed) above, with T3A, P8S, N34S, I77V, N78K, P104R counted along it

human IL-17A [4] = molecular target: T1, human IL-17A; test: ELISA, captured antibody, serially diluted biotin-IL-17 (Example 1.5.1)
Procedure: The following protocol is used to characterize the binding of IL-17 antibodies to human IL-17 by enzyme-linked immunosorbent assay (ELISA). […] 1. Coat ELISA plate with 50 μl per well of Goat anti Mouse IgG-Fc at 2 ug/ml, overnight at 4° C. […] 2. Wash plate 3×PBS/Tween. […] 3. Add 50 μl Mab diluted to 1 μg/ml in PBS/0.1% BSA to appropriate wells. Incubate 1 hr at room temperature (RT). […] 4. Wash plate 3× with PBS/Tween. […] 5. Add 50 μl of serial diluted biotin-IL17 (human IL-17, IL-17A/F, cyno IL-17) to appropriate wells. Incubate 1 hr at room temperature (RT). […] 6. Wash plate 3× with PBS/Tween. […] 7. […] Incubate 1 hr at RT. […] 8. Wash plate 3× with PBS/Tween. […] 9. […] 10. Stop reaction with 50 μl 2N H₂SO₄. […] Read absorbance at 450 nm.

human IL-17A [5] = molecular target: T4, human IL-17A (human, UniProt Q16552 24-155); test: hIL17A ELISA
T4 construct: Recombinant; biotinylated in the ELISA; also called hIL-17; hIL17A
T4 sequence (Q16552 24-155): as the sequence (Q16552 24-155 limits assumed) above

human IL-17A [6] = molecular target: T4, human IL-17A; test: cell-based or functional assay; remark: listed apart in the source
cynomolgus monkey IL-17A [7] = molecular target: T5, cynomolgus monkey IL-17A (cynomolgus monkey, UniProt A0A2K5TTB0 24-155); test: cell-based or functional assay
T5 sequence (A0A2K5TTB0 entry or part of it): as the sequence (Q16552 24-155 limits assumed) above, with T3A, P8S, N34S, I77V, N78K, P104R counted along it

rat IL-17A [8] = molecular target: T6, rat IL-17A (rat, UniProt Q61453 18-150, limits assumed); test: cell-based or functional assay
T6 sequence (looked up): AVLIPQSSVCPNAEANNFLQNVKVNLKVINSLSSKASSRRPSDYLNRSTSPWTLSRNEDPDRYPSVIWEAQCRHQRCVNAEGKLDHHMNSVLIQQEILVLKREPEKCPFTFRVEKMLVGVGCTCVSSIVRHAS

human IL-17A [9] = molecular target: T4, human IL-17A; test: SPR (Biacore 3000), antibody captured by anti-Fc, antigen in solution;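 also: purified recombinant IL-17 antigens flowed over captured antibodies in HBS-EP buffer, global Langmuir one-to-one fit of association and dissociation phases, KD derived from koff over kon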
Procedure: (§1) The binding of antibodies to purified recombinant human, cyno, rat, mouse, rabbit IL-17 and human IL-17A/F were determined by surface plasmon resonance-based measurements with a Biacore® 3000 instrument (Biacore® AB, Uppsala, Sweden) using running HBS-EP (10 mM HEPES [pH 7.4], 150 mM NaCl, 3 mM EDTA, and 0.005% surfactant P20) at 25° C. […] Approximately 5000 RU of goat anti-mouse or anti-human IgG (Fcγ) fragment specific polyclonal antibody (Pierce Biotechnology Inc, Rockford, Ill.) diluted in 10 mM sodium acetate (pH 4.5) was directly immobilized across a CM5 research grade biosensor chip using a standard amine coupling kit according to manufacturer's instructions and procedures at 25 μg/ml. Unreacted moieties on the biosensor surface were blocked with ethanolamine. Modified carboxymethyl dextran surface in flowcell 2 and 4 was used as a reaction surface. Unmodified carboxymethyl dextran without goat anti-mouse or anti-human IgG in flow cell 1 and 3 was used as the reference surface. For kinetic analysis, rate equations derived from the 1:1 Langmuir binding model were fitted simultaneously to association and dissociation phases of all eight injections (using global fit analysis) with the use of Biaevaluation 4.0.1 software. Purified antibodies were diluted in HEPES-buffered saline for capture across goat anti-mouse or anti-human IgG specific reaction surfaces. Antibodies to be captured as a ligand (25 μg/ml) were injected over reaction matrices at a flow rate of 5 μl/min. The association and dissociation rate constants, kon (unit M-1s-1) and koff (unit s-1) were determined under a continuous flow rate of 25 μl/min. Rate constants were derived by making kinetic binding measurements at ten different antigen concentrations ranging from 10 nM to 200 nM. The equilibrium dissociation constant (unit M) of the reaction between antibodies and recombinant purified IL-17 antigens was then calculated from the kinetic rate constants by the following formula: KD=koff/kon. Binding was recorded as a function of time and kinetic rate constants are calculated. In this assay, on-rates as fast as 10⁶ M⁻¹ s⁻¹ and off-rates as slow as 10⁻⁶ s⁻¹ can be measured.

human IL-17A/F [10] = molecular target: T7, human IL-17A/F (human, UniProt Q16552 24-155; Q96PD4 31-163); test: as above
T7 construct: Recombinant; biotinylated in the ELISA; also called hIL-17A/F; HuIL-17A/F
T7 sequence (Q16552 24-155, chain 1 of 2): as the sequence (Q16552 24-155 limits assumed) above
T7 sequence (Q96PD4 31-163, chain 2 of 2): as the sequence (Q96PD4 31-163 limits assumed, chain 2 of 2) above
Procedure: as §1

cynomolgus monkey IL-17A [11] = molecular target: T5, cynomolgus monkey IL-17A; test: as above
Procedure: as §1

rat IL-17A [12] = molecular target: T6, rat IL-17A; test: as above
Procedure: as §1

mouse IL-17A [13] = molecular target: T8, mouse IL-17A (mouse, UniProt Q62386 26-158, limits assumed); test: as above
T8 construct: Purified recombinant protein in SPR; also called MuIL-17A; murine IL-17A
T8 sequence (looked up): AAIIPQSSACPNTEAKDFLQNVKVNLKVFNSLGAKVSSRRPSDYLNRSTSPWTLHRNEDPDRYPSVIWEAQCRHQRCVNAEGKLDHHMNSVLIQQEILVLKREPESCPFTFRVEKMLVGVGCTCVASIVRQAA
Procedure: as §1

human IL-17A [14] = molecular target: T1, human IL-17A; test: cell-based or functional assay; remark: listed apart in the source
human IL-17A/F [15] = molecular target: T2, human IL-17A/F; test: cell-based or functional assay; remark: listed apart in the source
[16] = molecular target: T3, cynomolgous monkey (cyno) IL-17A; test: cell-based or functional assay; remark: listed apart in the source
rat IL-17A [17] = molecular target: T9, rat IL-17A (rat, UniProt Q61453 18-150, limits assumed); test: cell-based or functional assay; remark: listed apart in the source
T9 sequence (looked up): T6 sequence (looked up)

mouse IL-17A [18] = molecular target: T10, mouse IL-17A (mouse, UniProt Q62386 26-158, limits assumed); test: cell-based or functional assay
T10 sequence (looked up): T8 sequence (looked up)

rabbit IL-17A = rabbit IL-17A (rabbit); test: cell-based or functional assay

B1: IL17-TN-K7-B6 (antibody, V domains shown)
VH: EVQLVQSGAEVKKPGESLKISCKASGGSFRSYGISWVRQAPGQGLEWMGGITPILGTANYAQKFQGRVTITADESTTTAYMELSGLTSDDTAVYYCAREPNDFWNGYYTTHHFDYWGQGTPVTVSS
VL: DVVMTQSPDFQSVTPKEKVTITCRASQNIGSALHWYQQKPDQSPKLLIKYASQSISGVPSRFSGSGSGTDFTLTINGLEAEDAGTYYCHQSTSLPHTFGQGTKLDIKR
notes: Fully human monoclonal antibody from mRNA display
With B1 as the binder, how does the “Potency (nM), IL-17-driven IL-6 production in HS27 cells” value (from here on “Potency (nM)”) (human IL-17A [1]) read?
Its value is 4.5 nM.

And the “Potency (nM)” value (human IL-17A/F [2])?
The value was 8.1 nM.

And the “Potency (nM)” value [3]?
Its value is 18 nM.

What about the EC50 (human IL-17A [4]) of the same binder?
Its EC50 is 0.447 nM.

B2: IL17-h5C5.8 (antibody, V domains shown)
VH: EVQLVQSGAEVKKPGASVKVSCKASGYTFTDYEFHWVRQAPGQGLEWMGVIHPGNGGTAYNQNFRDRVTITADKSTSTAYMELSSLRSEDTAVYYCARFLTYEGYFDYWGQGTLVTVSS
VL: DIQMTQSPSSLSASVGDRVTITCKASQSVSIDVGWFQQKPGKSPKLLIYHASNRYTGVPSRFSGSGSGTDFTFTISSLQPEDFATYFCQQDYSSPYTFGQGTKLEIKR
notes: IgG; constant regions not specified; also called h5C5.8 (VH.1-Vk.1a)
B2 was tested. Which EC50 (human IL-17A [5]) did it give?
The EC50 was 0.07 nM.

And the “Potency (pM), IL-17-driven IL-6 production in HS27 cells” value (“Potency (pM) … in HS27 cells” below) (human IL-17A [6])?
Its value is 17 pM.

What about the “Potency (pM) … in HS27 cells” value (cynomolgus monkey IL-17A [7]) of the same binder?
Its value is 20 pM.

And the “Potency (pM), IL-17 and TNF-alpha-driven IL-6 production in NIH3T3 cells” value (rat IL-17A [8])?
The value was 13100 pM.

What about the Kd (human IL-17A [9]) of the same binder?
The Kd was 0.393 nM.

And the koff (human IL-17A [9])?
Its koff is 0.000444 s⁻¹.

And the kon (human IL-17A [9])?
The kon was 1.13e+06 M⁻¹ s⁻¹.

And the Kd (human IL-17A/F [10])?
The Kd was 1.28 nM.

And the koff (human IL-17A/F [10])?
The koff was 0.00121 s⁻¹.

And the kon (human IL-17A/F [10])?
Its kon is 948000 M⁻¹ s⁻¹.

And the Kd (cynomolgus monkey IL-17A [11])?
Its Kd is 0.217 nM.

And the koff (cynomolgus monkey IL-17A [11])?
The koff was 0.000226 s⁻¹.

And the kon (cynomolgus monkey IL-17A [11])?
Its kon is 1.04e+06 M⁻¹ s⁻¹.

And the Kd (rat IL-17A [12])?
The Kd was 14.2 nM.

What about the koff (rat IL-17A [12]) of the same binder?
Its koff is 0.011 s⁻¹.

And the kon (rat IL-17A [12])?
The kon was 774000 M⁻¹ s⁻¹.

And the Kd (mouse IL-17A [13])?
The Kd was 1.86 nM.

What about the koff (mouse IL-17A [13]) of the same binder?
Its koff is 0.000531 s⁻¹.

And the kon (mouse IL-17A [13])?
Its kon is 285000 M⁻¹ s⁻¹.

B3: IL17-B6-5 (antibody, V domains shown)
VH: EVQLVQSGAEVKKPGESVKISCKASGGSFRSYGISWVRQAPGQGLEWMGGITHFFGITDYAQKFQGRVTITADESTTTAYMELSGLTSDDTAVYYCAREPNDFWNGYYDTHDFDSWGQGTTVTVSS
VL: EIVLTQSPDFQSVTPKEKVTITCRASQNIGSELHWYQQKPDQSPKLLIKYASHSISGVPSRFSGSGSGTDFTLTINGLEAEDAATYYCHQSDTLPHTFGQGTKVDIK
notes: also called pJP243 B6.1 #5VH / pJP244 B6.1 #5VK
For B3, which “Potency (pM) … in HS27 cells” value (human IL-17A [14]) is on record?
The value was 18 pM.

And the “Potency (pM) … in HS27 cells” value (human IL-17A/F [15])?
Its value is 134 pM.

And the “Potency (pM) … in HS27 cells” value [16]?
Its value is 12 pM.

And the “Potency (pM), IL-17 and TNF-induced IL-6 secretion from NIH3T3 cells” value (shortened to “Potency (pM) … from NIH3T3 cells”) (rat IL-17A [17])?
The value was 73 pM.

And the “Potency (pM) … from NIH3T3 cells” value (mouse IL-17A [18])?
The value was 64 pM.

What about the “Potency (pM) … from NIH3T3 cells” value (rabbit IL-17A) of the same binder?
Its value is 320 pM.

And the EC50 (human IL-17A [4])?
Its EC50 is 0.22 nM.

B4: IL17-B6-17 (antibody, V domains shown)
VH: EVQLVQSGAEVKKPGSSVKVSCKASGGSFGGYGIGWVRQAPGQGLEWMGGITPFFGFADYAQKFQGRVTITADESTTTAYMELSGLTSDDTAVYYCARDPNEFWNGYYSTHDFDSWGQGTTVTVSS
VL: B3 VL with N28D, S43P, I55T, A84G, S91T, T93S, H96Y, Q100P
notes: also called pJP249 B6.1 #17VH / pJP252 B6.1 #17Vk
Which “Potency (pM) … in HS27 cells” value (human IL-17A [14]) does the source give for B4 here?
Its value is 15 pM.

What about the “Potency (pM) … in HS27 cells” value (human IL-17A/F [15]) of the same binder?
The value was 137 pM.

And the “Potency (pM) … in HS27 cells” value [16]?
Its value is 11 pM.

What about the “Potency (pM) … from NIH3T3 cells” value (rat IL-17A [17]) of the same binder?
Its value is 111 pM.

What about the “Potency (pM) … from NIH3T3 cells” value (mouse IL-17A [18]) of the same binder?
Its value is 69 pM.

What about the “Potency (pM) … from NIH3T3 cells” value (rabbit IL-17A) of the same binder?
The value was 232 pM.

And the EC50 (human IL-17A [4])?
The EC50 was 0.13 nM.

B5: IL17-TN-L7-G9 (antibody, V domains shown)
VH: EVQLLESGGGVVQPGRSLRLSCAASGFIFSNYGMHWVRQAPGKGLEWVAVISYDGSNKYYADSVKGRFTISRDNSKNTLYLEMNSLRPEDTAVYYCAKVGASGDYYYSYGLDVWGQGTTVTVSS
VL: QSGLTQPPSASGTPGQTVSISCSGSNSNIGSHSVNWYQQVPGAAPKLLMYGIGQRPSGVPDRFSVSQSGTSASLAISGLQSEDEADYYCATWDDSLGGYVFGSGTKVTVLG
notes: as for B1
How did the “Potency (nM)” value (human IL-17A [1]) turn out when B5 was run?
Its value is 0.8 nM.

What about the “Potency (nM)” value (human IL-17A/F [2]) of the same binder?
Its value is 2 nM.

What about the “Potency (nM)” value [3] of the same binder?
Its value is 12 nM.

And the EC50 (human IL-17A [4])?
Its EC50 is 0.165 nM.

B6: IL17-TN-L7-A7 (antibody, V domains shown)
VH: B5 VH with R16T, S17F, S25T, I28T, N31A, K43R, I51T, T119M
VL: B5 VL
notes: as for B1
With B6 as the binder, how does the “Potency (nM)” value (human IL-17A [1]) read?
Its value is 1.8 nM.

And the “Potency (nM)” value (human IL-17A/F [2])?
Its value is 1.8 nM.

And the “Potency (nM)” value [3]?
The value was 12 nM.

What about the EC50 (human IL-17A [4]) of the same binder?
The EC50 was 0.131 nM.

B7: IL17-TN-L7-C8 (antibody, V domains shown)
VH: EVQLVQSGAEVKKPGASVKVSCKASGYTFSDFDIDWVRQATGLGLEWMGWMNPNSGNTGVAPKFRGRVSMTFNTAIRTAYLELSSLRPDDTAVYFCARSSESEGITIGFDNWGQGTLVTVSS
VL: SYELTQPPSVSVSPGQTASIPCSGDKLGNRYACWYKQKPGQPPVLVIYQDNKRPSGISERYSGSNYGDTATLTITGTQAMDEADYYCQTWDSTTGSYVFGTGTKVTVLG
notes: Fully human monoclonal antibody from mRNA display; also called IL-TN-L7-C8
Which “Potency (nM)” value (human IL-17A [1]) does the source give for B7 here?
The value was 4.5 nM.

And the “Potency (nM)” value (human IL-17A/F [2])?
The value was 2.6 nM.

What about the “Potency (nM)” value [3] of the same binder?
Its value is 18 nM.

And the EC50 (human IL-17A [4])?
Its EC50 is 0.517 nM.
